According to the supplement of paper PMC10724198:
± gives the standard deviation of the averaged measurements.

The sequences below were run on Saccharomyces cerevisiae (assay: protein stability index of tFT-peptide fusion (C-terminal peptide) (PSI (0-1 scale)); higher = more stable (slower turnover)). Details: genetic background: wild type; temperature: 30 C.
Experimental: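 Multiplexed protein stability (MPS) profiling in S. cerevisiae. Random 12-aa peptides (tFT-X12 library) are fused to the C-terminus of a sfGFP-mCherry tandem fluorescent timer, after mCherry and a GGGS linker. Cells are FACS-sorted into 8 mCherry/sfGFP bins and deep-sequenced. The protein stability index (PSI) is the read-weighted bin average, scaled from 0 (unstable) to 1 (stable). Only peptides with >10 reads are reported; cells were grown at 30 °C in SC-His with glucose.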
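Further: PSI is a weighted mean of sequencing reads over stability bins, variants kept only with over 10 reads, mCherry proximal and sfGFP distal, peptide attached via GGGS linker.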

Row | Sequence | protein stability index
1 | VWSLGLSVVGLW | 0.649 ± 0.092
2 | AVLTDKKGRVRS | 0.703 ± 0.036
3 | AMPLPPPTPPRS | 0.627 ± 0.027
4 | PLPSFPFPRPSS | 0.634 ± 0.037
5 | STPPPPHSASRS | 0.728 ± 0.059
6 | SPPVPPLPAPAT | 0.539 ± 0.012
7 | PTKSQNEKTKAE | 0.679 ± 0.037
8 | PPSPPPARPSPA | 0.667 ± 0.041
9 | RLGPSAPLFVHL | 0.542 ± 0.042
10 | GVFVVGLSCSLR | 0.5521 ± 0.0048
11 | GLGGRFSWVDGV | 0.756 ± 0.012
12 | GFGILGLPQPCV | 0.662 ± 0.067
13 | RLHSLLFYALGS | 0.668 ± 0.028
14 | SSPSFVVFPFVS | 0.685 ± 0.017
15 | WAVGGKVNEVIE | 0.757 ± 0.06
16 | PSSLRLPLCSPL | 0.7039 ± 0.004
17 | GESGGVGGQCWR | 0.74 ± 0.0082
18 | CCVSFFISFGGR | 0.554 ± 0.03
19 | HGSRGGIINEEG | 0.642 ± 0.082
20 | GGCLSVLGLGSV | 0.688 ± 0.031
21 | RVLRKIWEWKKG | 0.685 ± 0.051
22 | VCDGIIQGNGTI | 0.705 ± 0.021
23 | TKPTRPVSPTHL | 0.693 ± 0.12
24 | ECSPRQVPSLAE | 0.694 ± 0.028
25 | STTQFTLSATRI | 0.717 ± 0.093

Row | Sequence | protein stability index
26 | GGGVRWGVGRGG | 0.652 ± 0.025
27 | ISVPMPSFGPLP | 0.6938 ± 0.002
28 | DIISSKENWVEI | 0.68 ± 0.059
29 | LLDGRNVPRFRK | 0.792 ± 0.042
30 | MGRQSCCHKTSG | 0.643 ± 0.042
31 | KSVGKGIIQLRL | 0.726 ± 0.042
32 | CVRPAPGSGGWQ | 0.6429 ± 0.0041
33 | SKKKKNLQIPKK | 0.734 ± 0.12
34 | QRRGAPTPPACL | 0.748 ± 0.011
35 | LGVPPVLLLASS | 0.506 ± 0.0077
36 | PPIPPSAPLCPP | 0.688 ± 0.014
37 | NPPAPPAPHLST | 0.685 ± 0.013
38 | PPYSPSPRDPFA | 0.713 ± 0.047
39 | IKKRVTFSYDGK | 0.686 ± 0.062
40 | QPKEGGRPKKKE | 0.675 ± 0.035
41 | PNPHGRPSIPAL | 0.65 ± 0.039
42 | FDVAPTSRVNFL | 0.724 ± 0.06
43 | VVHSRSTPAHPH | 0.679 ± 0.12
44 | HRYRAFPLASSR | 0.618 ± 0.056
45 | SKERLKSEKMKK | 0.745 ± 0.059
46 | PPPLPPPLPPPL | 0.705 ± 0.05
47 | TPAPLLPRRTPP | 0.734 ± 0.073
48 | GQRTKSHSRGGP | 0.648 ± 0.025
49 | TVLRPKERQEHN | 0.721 ± 0.038
50 | FGRVRFCFRMRS | 0.671 ± 0.025

Row | Sequence | protein stability index
51 | PPPPPPPPALSS | 0.7163 ± 0.0034
52 | VWGVRVVCGFTV | 0.533 ± 0.0038
53 | KKNERKEKNNTN | 0.673 ± 0.014
54 | GVWCFPVGVFRA | 0.529 ± 0.011
55 | GEGFLRVGLADV | 0.761 ± 0.09
56 | VDHRFLWALSSF | 0.751 ± 0.043
57 | RNRTNVETKTGS | 0.6966 ± 0.0034
58 | GGLGDIHSDDVE | 0.681 ± 0.019
59 | LCLDNFSSSWPI | 0.719 ± 0.02
60 | IAVSSHPVLVCK | 0.5961 ± 0.0029
61 | GGGRALGRVWPG | 0.684 ± 0.017
62 | ENLRKLGIALWG | 0.682 ± 0.14
63 | FQPQPSPAHPSH | 0.693 ± 0.023
64 | WVFSGTWSSVSG | 0.671 ± 0.027
65 | PFRPPPLLPFSP | 0.799 ± 0.13
66 | EQKYHTCEDAQK | 0.685 ± 0.1
67 | PSPPRPRLPTAV | 0.67026 ± 0.00045
68 | VDTNIRRTATYS | 0.729 ± 0.066
69 | HSFPSTLRRCFL | 0.731 ± 0.095
70 | WMTFTTAVTDGG | 0.656 ± 0.046
71 | FGAEWRGVLSGC | 0.773 ± 0.013
72 | SDSAPSPPAFLP | 0.6569 ± 0.0025
73 | RTEMASLERKSF | 0.696 ± 0.017
74 | PRPRRSSLPFPP | 0.818 ± 0.073
75 | WGPGGGGVSDGM | 0.768 ± 0.019

Row | Sequence | protein stability index
76 | GWALGRAGASGA | 0.701 ± 0.067
77 | VTAIVLSVLSGC | 0.556 ± 0.022
78 | PPRPPPPPSPPL | 0.745 ± 0.027
79 | SRWTLRTSMDLG | 0.616 ± 0.013
80 | KELGGSSEITEI | 0.658 ± 0.072
81 | VGELCGVGGRGG | 0.68 ± 0.13
82 | RPPPGTPPGWSP | 0.73 ± 0.028
83 | RGHPRRRPERKA | 0.707 ± 0.09
84 | TRFLRCACCFVC | 0.565 ± 0.036
85 | TPSPPTLHPPPP | 0.691 ± 0.023
86 | FFFPLLLLSPPI | 0.535 ± 0.015
87 | VYGGFGGGRWVI | 0.702 ± 0.087
88 | YGRLPNWGASTE | 0.714 ± 0.014
89 | RKKENRYKIEVK | 0.6799 ± 0.0017
90 | GRAVPKTHPGNL | 0.7686 ± 0.0037
91 | CLTHLLPPAFPC | 0.694 ± 0.018
92 | GRYLIGKNKRVI | 0.687 ± 0.011
93 | LARASLVLPPSG | 0.648 ± 0.093
94 | LSPPLAPPPALP | 0.701 ± 0.08
95 | RCEWRGSCWGGE | 0.653 ± 0.062
96 | PPPYPSYPPRPN | 0.724 ± 0.032
97 | PKSRTLKDITIF | 0.684 ± 0.024
98 | SSSCRGGVSVLV | 0.679 ± 0.044
